Data on 5 molecules can be found in patent publication US20060127409A1 (published 2006).

For assay [1], the target named is T1, HLA-A0201 molecule on T2 cells (TAP-, HLA-A0201+) (human).
T1 construct: Empty, thermolabile HLA-A0201 on TAP-deficient T2 cells, stabilised by added peptide; surface level read with mAb BB7.2; also called HLA-A2.1; HLA-A2
Nature of the assay: refers to the T2 assay. The procedure:
(§1) T2 cells (TAP-, HLA-A0201⁺) were incubated overnight at 37° C. at a concentration of 1×10⁶ cells/ml in FCS-free RPMI medium supplemented with 5 μg/ml human β₂m (Sigma, St Louis, Mo.) in the absence (negative control) or presence of either a positive reference tyrosinase peptide or test peptides at various final concentrations (50, 10, 1, and 0.1 micrograms (μg)/ml). Following a 4-hour incubation with 5 μg/ml brefeldin A (Sigma), T2 cells were labeled for 30 minutes at 4° C. with a saturating concentration of anti-HLA-A2.1 (BB7.2) mAb, then washed twice. Cells were then incubated for 30 minutes, 4° C. with a saturating concentration of FITC-conjugated goat IgG F(ab′)2 anti-mouse Ig (Caltag, San Francisco, Calif.), washed twice, fixed in PBS/1% paraformaldehyde and analyzed using a FACS Calibur® cytofluorometer (Becton Dickinson, Immunocytometry Systems, San Jose, Calif.)
(§2) The mean intensity of fluorescence (MIF) observed for each peptide concentration (after dividing by the MIF in the absence of peptide) was used as an indication of peptide binding and expressed as a “fluorescence index.” Stabilization assays were performed similarly. Following initial evaluation of peptide binding at time 0, cells were washed in RPMI complete medium to remove free peptides and incubated in the continuous presence of 0.5 μg/ml brefeldin-A for 2, 4, 6 or 8 hours.

The target of assay [2] is T1, HLA-A0201 molecule on T2 cells (TAP-, …). Kind of assay: T2 binding and stabilization assay, flow cytometry with BB7.2. On the procedure:
as §1, §2
On the technique in general: Flow cytometry measures light scatter and fluorescence of single cells or particles in a stream.

B1: CMLA2 native (p210-b3a2) (peptide)
peptide: SSKALQRPV
notes: Synthetic 9-mer
As to B1, the binding result in assay [1] is reported as “binds”.

B2: p210Cn native (p210-b3a2) (peptide)
peptide: KALQRPVAS
B2: in assay [2], the binding result is “binds”.

B3: b2a2 A3 (analogue) (peptide)
peptide: YLINKEEAL
notes: Synthetic analogue of b2a2A; also called YLINKEEAL
Consider B3, for which the binding result in assay [2] is listed as “binds”.

B4: b2a2 A4 (analogue) (peptide)
peptide: YLINKEEAV
notes: Synthetic analogue of b2a2A
For the molecule B4, in assay [2], the binding result was “binds”.

B5: b2a2 A5 (analogue) (peptide)
peptide: YLINKVEAL
notes: Synthetic analogue of b2a2A; also called YLINKVEAL
B5: the binding result in assay [2] is on record as “binds”.
